Reference: the RNAGym collection of RNA variant scans (doi:10.1073/pnas.2313332121)
Variants at the floor of the assay were thinned out.

B1: TPR 5TU (parent)
chain: GGAUCUUCUCGAUCUAACAAAAAAGACAAAUCUGCCACAAAGCUUGAGAGCAUCUUCGGAUGCAGAGGCGGCAGCCUUCGGUGGCGCGAUAGCGCCAACGUUCUCAACUAUGACACGCAAAACGCGUGCUCCGUUGAAUGGAGUUUAUCAUG

Variants of: B1
Experiment: polymerase ribozyme fitness, log enrichment relative to wild type (log ratio); higher = more active; in vitro selection for triplet polymerase activity
Outline: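 PCR was used to build mutant libraries for each subunit of a heterodimeric triplet polymerase ribozyme, which were then transcribed. A single in vitro selection round, in triplicate, used a frozen incubation at −7 °C and recovered extended constructs by gel excision, streptavidin beads and RT-PCR. Fitness is the logarithm of genotype enrichment relative to wild-type enrichment, averaged over replicates with inverse-variance weights. The logarithm is base 2, and after Illumina sequencing only genotypes with ≥10 input reads and ≥1 read per output were kept.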
For A39G G59A C116U U144C, the “polymerase ribozyme fitness (log ratio)” value was -4.19.
In the case of C38U G50A U77C C87G, the “polymerase ribozyme fitness (log ratio)” value is reported as ≤ -4.2.
For C38G G42C G71C C95A C96A, the “polymerase ribozyme fitness (log ratio)” value was ≤ -4.2.
In the case of C38U G83A G100A C129G, the “polymerase ribozyme fitness (log ratio)” value is reported as ≤ -4.2.
For C38U C72U C95G, the “polymerase ribozyme fitness (log ratio)” value was -0.675.
In the case of A39C C85A C118A, the “polymerase ribozyme fitness (log ratio)” value is reported as -3.96.
For A39U A49C A137G, the “polymerase ribozyme fitness (log ratio)” value was ≤ -4.2.
With C38A U56G G136C U146C the “polymerase ribozyme fitness (log ratio)” value was -3.92.
With A39G G84A C116U the “polymerase ribozyme fitness (log ratio)” value was -1.91.
For A39C A40C A41C G42C G46U G59C C87A U90G U127G G152U, the “polymerase ribozyme fitness (log ratio)” value was ≤ -4.2.
With A39U A41C G80C G84U A142C C149A the “polymerase ribozyme fitness (log ratio)” value was ≤ -4.2.
For C38U U45A G92C, the “polymerase ribozyme fitness (log ratio)” value was -4.13.
In the case of A39C C96G A137U, the “polymerase ribozyme fitness (log ratio)” value is reported as ≤ -4.2.
For A39C C63A A64U G84A C93G C116G, the “polymerase ribozyme fitness (log ratio)” value was ≤ -4.2.
In the case of C38U C69A U82A G94U, the “polymerase ribozyme fitness (log ratio)” value is reported as -3.99.
For A39G A137G, the “polymerase ribozyme fitness (log ratio)” value was -3.57.
For C38U G140U, the “polymerase ribozyme fitness (log ratio)” value was -2.77.
With A39G G59A C96G U146C the “polymerase ribozyme fitness (log ratio)” value was -3.67.
For C38U C85U C95G C105A, the “polymerase ribozyme fitness (log ratio)” value was -3.93.
With C38U G94U the “polymerase ribozyme fitness (log ratio)” value was -0.0168.
With A39G G48A C51U U56C G59U A150C the “polymerase ribozyme fitness (log ratio)” value was ≤ -4.2.
With C38G C85A C116A A120G the “polymerase ribozyme fitness (log ratio)” value was -2.28.
For C38U U56A G70C A91U U104A A107C U145A, the “polymerase ribozyme fitness (log ratio)” value was ≤ -4.2.
In the case of A39G G86C U109C G128U G140C, the “polymerase ribozyme fitness (log ratio)” value is reported as ≤ -4.2.
For A39C A40C A49C, the “polymerase ribozyme fitness (log ratio)” value was ≤ -4.2.
With C38U A60C U61A C76U C87G C93A G136A G141A the “polymerase ribozyme fitness (log ratio)” value was ≤ -4.2.
In the case of C38G U56A G94A A121G, the “polymerase ribozyme fitness (log ratio)” value is reported as -1.64.
For C38U C93G, the “polymerase ribozyme fitness (log ratio)” value was -2.92.
For C38U U61A A106C G141A, the “polymerase ribozyme fitness (log ratio)” value was -3.01.
In the case of A39C G65C G83C G143A A150U, the “polymerase ribozyme fitness (log ratio)” value is reported as ≤ -4.2.
In the case of C38U A73G G83U A91U A97U A110G, the “polymerase ribozyme fitness (log ratio)” value is reported as ≤ -4.2.
For C38U U55G G84C A98U, the “polymerase ribozyme fitness (log ratio)” value was -1.
For C38U U55G A119G, the “polymerase ribozyme fitness (log ratio)” value was -0.675.
In the case of C38G C123A, the “polymerase ribozyme fitness (log ratio)” value is reported as -0.288.
In the case of C38U U45A G68C U102G A138G, the “polymerase ribozyme fitness (log ratio)” value is reported as ≤ -4.2.
In the case of A39G A52C C54G C85U C125U G126U A147C, the “polymerase ribozyme fitness (log ratio)” value is reported as ≤ -4.2.
For A39G C75U C85U, the “polymerase ribozyme fitness (log ratio)” value was -3.44.
With C38G A89C C93A C95G U109C the “polymerase ribozyme fitness (log ratio)” value was ≤ -4.2.
For C38G C54U C57U G141C, the “polymerase ribozyme fitness (log ratio)” value was -2.86.
In the case of A39C A52G, the “polymerase ribozyme fitness (log ratio)” value is reported as -2.32.
With C38U G84U C87G U144C C149G the “polymerase ribozyme fitness (log ratio)” value was ≤ -4.2.
For C38U C85U C105U C123G, the “polymerase ribozyme fitness (log ratio)” value was 0.319.
With C38U A40C G80U C95U the “polymerase ribozyme fitness (log ratio)” value was -1.06.
In the case of A39U A47U C96U A122G G124A, the “polymerase ribozyme fitness (log ratio)” value is reported as -3.16.
In the case of A39C G81C C85U C116A G141C, the “polymerase ribozyme fitness (log ratio)” value is reported as ≤ -4.2.
With A39G U53A C87U A115C the “polymerase ribozyme fitness (log ratio)” value was -3.83.
For A39C G62A A66U U134G G143A, the “polymerase ribozyme fitness (log ratio)” value was ≤ -4.2.
For C38U A121C G136C A138U U148G, the “polymerase ribozyme fitness (log ratio)” value was ≤ -4.2.
For A39C C118U A120U, the “polymerase ribozyme fitness (log ratio)” value was -1.81.
In the case of A39C C57A G86A U130C, the “polymerase ribozyme fitness (log ratio)” value is reported as -2.93.
With A39C G62U G70A A115G the “polymerase ribozyme fitness (log ratio)” value was ≤ -4.2.
In the case of A39U A66C G68A C108U A121U U134A G143U, the “polymerase ribozyme fitness (log ratio)” value is reported as ≤ -4.2.
In the case of C38U G62A C96U C129U, the “polymerase ribozyme fitness (log ratio)” value is reported as -0.672.
For A39G G42A C87G, the “polymerase ribozyme fitness (log ratio)” value was ≤ -4.2.
In the case of A39C C54G C93A, the “polymerase ribozyme fitness (log ratio)” value is reported as ≤ -4.2.
In the case of C38U C85A G117C, the “polymerase ribozyme fitness (log ratio)” value is reported as -0.0326.
In the case of C38G C54G C76G A107U U146G, the “polymerase ribozyme fitness (log ratio)” value is reported as ≤ -4.2.
For A39G G42A G88C, the “polymerase ribozyme fitness (log ratio)” value was ≤ -4.2.
For A39G G48A C54A G88A C125U U134G U145C, the “polymerase ribozyme fitness (log ratio)” value was ≤ -4.2.
For C38U C95A, the “polymerase ribozyme fitness (log ratio)” value was -1.07.
For C38U C95U, the “polymerase ribozyme fitness (log ratio)” value was -0.731.
In the case of C38G A40U U55A U56A C87U A89C, the “polymerase ribozyme fitness (log ratio)” value is reported as -3.99.
With A39G A60C the “polymerase ribozyme fitness (log ratio)” value was -3.03.
With C38U A47C A64C U78G G84C A97C C108U the “polymerase ribozyme fitness (log ratio)” value was ≤ -4.2.
For C38G U56A C93U U104G A122C, the “polymerase ribozyme fitness (log ratio)” value was -2.96.
With C38U C96G the “polymerase ribozyme fitness (log ratio)” value was -1.09.
In the case of A39U A40C G42U G48A A60U U82G C85A U104A U127C, the “polymerase ribozyme fitness (log ratio)” value is reported as ≤ -4.2.
In the case of C38U U78C C95U, the “polymerase ribozyme fitness (log ratio)” value is reported as -0.556.
For A39C G143U, the “polymerase ribozyme fitness (log ratio)” value was -4.15.
With A39U A64U C87G the “polymerase ribozyme fitness (log ratio)” value was ≤ -4.2.
In the case of C38U C76G, the “polymerase ribozyme fitness (log ratio)” value is reported as ≤ -4.2.
In the case of A39G C87U A89G G126A C132U, the “polymerase ribozyme fitness (log ratio)” value is reported as ≤ -4.2.
In the case of C38U G136U, the “polymerase ribozyme fitness (log ratio)” value is reported as -2.3.
In the case of A39U A40U A91U C95G, the “polymerase ribozyme fitness (log ratio)” value is reported as ≤ -4.2.
For C38U C93A A119C A142U, the “polymerase ribozyme fitness (log ratio)” value was -3.54.
In the case of A39G U55A G71A G92C C96U C131U C149A, the “polymerase ribozyme fitness (log ratio)” value is reported as ≤ -4.2.
In the case of A39U A41U U56A G71A, the “polymerase ribozyme fitness (log ratio)” value is reported as ≤ -4.2.
For C38U G58A U61A U134C, the “polymerase ribozyme fitness (log ratio)” value was -1.57.
For A39U C51U U61G A89U, the “polymerase ribozyme fitness (log ratio)” value was ≤ -4.2.
With C38U G81A C99G A120U G124C the “polymerase ribozyme fitness (log ratio)” value was -3.02.
In the case of A39U A52G G74U U90A A122G C125G C129U, the “polymerase ribozyme fitness (log ratio)” value is reported as ≤ -4.2.
In the case of C38G C54A G74U A106U G140U, the “polymerase ribozyme fitness (log ratio)” value is reported as ≤ -4.2.
For C38G A40G A49G A60U C93A A121G, the “polymerase ribozyme fitness (log ratio)” value was ≤ -4.2.
